Laboratory results: publication PMC4615246 (Nucleus, 2015)

T1: LacI-CFP-Nup50 (human, UniProt Q9UKX7 1-468)
T1 sequence: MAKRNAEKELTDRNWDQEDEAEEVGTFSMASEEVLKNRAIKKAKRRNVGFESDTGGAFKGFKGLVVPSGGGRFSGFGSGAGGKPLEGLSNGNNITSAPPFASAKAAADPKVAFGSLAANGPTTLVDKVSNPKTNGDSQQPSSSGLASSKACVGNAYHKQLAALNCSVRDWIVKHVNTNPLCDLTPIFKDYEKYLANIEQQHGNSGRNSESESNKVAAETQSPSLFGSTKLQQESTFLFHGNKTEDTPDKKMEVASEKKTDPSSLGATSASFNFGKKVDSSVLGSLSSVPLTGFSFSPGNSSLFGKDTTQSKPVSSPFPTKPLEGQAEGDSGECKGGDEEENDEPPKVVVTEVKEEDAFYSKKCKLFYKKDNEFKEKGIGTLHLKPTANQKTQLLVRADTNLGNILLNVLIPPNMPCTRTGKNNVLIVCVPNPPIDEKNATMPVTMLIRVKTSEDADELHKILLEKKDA

T2: LacI-CFP-Nup155 (human, UniProt O75694 1-1391)
T2 sequence: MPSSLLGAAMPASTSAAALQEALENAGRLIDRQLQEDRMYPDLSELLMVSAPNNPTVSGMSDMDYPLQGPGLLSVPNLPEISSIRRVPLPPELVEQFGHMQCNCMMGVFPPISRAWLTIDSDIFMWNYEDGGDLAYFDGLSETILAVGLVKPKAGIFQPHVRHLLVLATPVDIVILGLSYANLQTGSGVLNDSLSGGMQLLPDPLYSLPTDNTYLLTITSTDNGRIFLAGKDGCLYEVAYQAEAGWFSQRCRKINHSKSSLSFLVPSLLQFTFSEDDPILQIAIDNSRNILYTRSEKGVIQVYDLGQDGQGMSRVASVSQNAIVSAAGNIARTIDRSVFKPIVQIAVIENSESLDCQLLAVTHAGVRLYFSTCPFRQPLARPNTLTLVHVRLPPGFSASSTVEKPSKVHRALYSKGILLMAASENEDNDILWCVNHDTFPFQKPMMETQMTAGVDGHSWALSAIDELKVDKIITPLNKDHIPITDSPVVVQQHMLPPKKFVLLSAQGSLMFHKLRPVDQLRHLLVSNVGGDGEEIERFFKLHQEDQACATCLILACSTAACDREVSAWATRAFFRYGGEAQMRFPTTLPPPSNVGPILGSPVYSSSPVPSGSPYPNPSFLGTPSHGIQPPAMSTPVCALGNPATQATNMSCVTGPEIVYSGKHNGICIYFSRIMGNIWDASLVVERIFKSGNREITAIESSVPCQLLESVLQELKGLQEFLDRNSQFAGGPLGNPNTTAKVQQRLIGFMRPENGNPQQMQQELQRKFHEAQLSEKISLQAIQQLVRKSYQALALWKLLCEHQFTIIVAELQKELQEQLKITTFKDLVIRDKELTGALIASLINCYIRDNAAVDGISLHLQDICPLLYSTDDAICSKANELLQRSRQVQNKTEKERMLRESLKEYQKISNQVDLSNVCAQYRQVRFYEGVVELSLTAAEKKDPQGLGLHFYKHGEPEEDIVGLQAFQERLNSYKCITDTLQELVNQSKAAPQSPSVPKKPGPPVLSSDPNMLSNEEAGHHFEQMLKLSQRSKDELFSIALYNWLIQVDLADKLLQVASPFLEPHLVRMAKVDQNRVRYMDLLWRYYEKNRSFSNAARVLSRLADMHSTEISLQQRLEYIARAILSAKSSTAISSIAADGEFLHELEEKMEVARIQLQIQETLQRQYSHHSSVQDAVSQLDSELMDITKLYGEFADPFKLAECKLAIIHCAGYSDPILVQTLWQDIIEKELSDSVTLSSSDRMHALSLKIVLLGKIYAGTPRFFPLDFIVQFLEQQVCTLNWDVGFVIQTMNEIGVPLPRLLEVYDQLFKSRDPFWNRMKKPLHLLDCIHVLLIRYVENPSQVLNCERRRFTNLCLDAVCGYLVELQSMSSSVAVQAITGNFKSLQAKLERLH

T3: LacI-CFP-Nup107 (human, UniProt P57740 1-925)
T3 sequence: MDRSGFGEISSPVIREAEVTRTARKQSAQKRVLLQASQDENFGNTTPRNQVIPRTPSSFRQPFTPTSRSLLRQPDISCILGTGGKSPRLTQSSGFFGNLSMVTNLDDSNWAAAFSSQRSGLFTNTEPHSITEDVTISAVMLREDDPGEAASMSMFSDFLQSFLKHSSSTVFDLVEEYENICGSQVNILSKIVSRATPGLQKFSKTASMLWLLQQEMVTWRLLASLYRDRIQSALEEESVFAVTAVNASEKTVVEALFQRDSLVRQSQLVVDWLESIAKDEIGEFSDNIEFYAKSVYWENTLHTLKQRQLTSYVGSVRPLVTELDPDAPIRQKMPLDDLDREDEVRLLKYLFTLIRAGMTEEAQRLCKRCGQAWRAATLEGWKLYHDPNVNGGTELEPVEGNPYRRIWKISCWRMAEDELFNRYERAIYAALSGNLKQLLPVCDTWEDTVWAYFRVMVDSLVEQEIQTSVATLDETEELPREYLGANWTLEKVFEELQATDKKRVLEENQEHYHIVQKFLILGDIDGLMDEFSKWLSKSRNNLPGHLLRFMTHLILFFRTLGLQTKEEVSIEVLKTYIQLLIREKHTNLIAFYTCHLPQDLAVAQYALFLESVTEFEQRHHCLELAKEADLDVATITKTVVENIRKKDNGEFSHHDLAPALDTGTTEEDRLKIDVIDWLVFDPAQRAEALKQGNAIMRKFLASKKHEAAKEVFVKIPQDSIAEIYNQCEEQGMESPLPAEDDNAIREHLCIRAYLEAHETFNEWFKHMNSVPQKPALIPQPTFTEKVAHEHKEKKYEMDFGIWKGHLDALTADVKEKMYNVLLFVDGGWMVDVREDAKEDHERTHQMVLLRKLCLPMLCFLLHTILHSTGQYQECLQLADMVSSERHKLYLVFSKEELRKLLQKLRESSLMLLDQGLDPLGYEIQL

B1: Nup53 (endogenous) (natural protein)
chain: MAAFAVEPQGPALGSEPMMLGSPTSPKPGVNAQFLPGFLMGDLPAPVTPQPRSISGPSVGVMEMRSPLLAGGSPPQPVVPAHKDKSGAPPVRSIYDDISSPGLGSTPLTSRRQPNISVMQSPLVGVTSTPGTGQSMFSPASIGQPRKTTLSPAQLDPFYTQGDSLTSEDHLDDSWVTVFGFPQASASYILLQFAQYGNILKHVMSNTGNWMHIRYQSKLQARKALSKDGRIFGESIMIGVKPCIDKSVMESSDRCALSSPSLAFTPPIKTLGTPTQPGSTPRISTMRPLATAYKASTSDYQVISDRQTPKKDESLVSKAMEYMFGW
B2: Nup160 (endogenous) (natural protein)
chain: MLHLSAAPPAPPPEVTATARPCLCSVGRRGDGGKMAAAGALERSFVELSGAERERPRHFREFTVCSIGTANAVAGAVKYSESAGGFYYVESGKLFSVTRNRFIHWKTSGDTLELMEESLDINLLNNAIRLKFQNCSVLPGGVYVSETQNRVIILMLTNQTVHRLLLPHPSRMYRSELVVDSQMQSIFTDIGKVDFTDPCNYQLIPAVPGISPNSTASTAWLSSDGEALFALPCASGGIFVLKLPPYDIPGMVSVVELKQSSVMQRLLTGWMPTAIRGDQSPSDRPLSLAVHCVEHDAFIFALCQDHKLRMWSYKEQMCLMVADMLEYVPVKKDLRLTAGTGHKLRLAYSPTMGLYLGIYMHAPKRGQFCIFQLVSTESNRYSLDHISSLFTSQETLIDFALTSTDIWALWHDAENQTVVKYINFEHNVAGQWNPVFMQPLPEEEIVIRDDQDPREMYLQSLFTPGQFTNEALCKALQIFCRGTERNLDLSWSELKKEVTLAVENELQGSVTEYEFSQEEFRNLQQEFWCKFYACCLQYQEALSHPLALHLNPHTNMVCLLKKGYLSFLIPSSLVDHLYLLPYENLLTEDETTISDDVDIARDVICLIKCLRLIEESVTVDMSVIMEMSCYNLQSPEKAAEQILEDMITIDVENVMEDICSKLQEIRNPIHAIGLLIREMDYETEVEMEKGFNPAQPLNIRMNLTQLYGSNTAGYIVCRGVHKIASTRFLICRDLLILQQLLMRLGDAVIWGTGQLFQAQQDLLHRTAPLLLSYYLIKWGSECLATDVPLDTLESNLQHLSVLELTDSGALMANRFVSSPQTIVELFFQEVARKHIISHLFSQPKAPLSQTGLNWPEMITAITSYLLQLLWPSNPGCLFLECLMGNCQYVQLQDYIQLLHPWCQVNVGSCRFMLGRCYLVTGEGQKALECFCQAASEVGKEEFLDRLIRSEDGEIVSTPRLQYYDKVLRLLDVIGLPELVIQLATSAITEAGDDWKSQATLRTCIFKHHLDLGHNSQAYEALTQIPDSSRQLDCLRQLVVVLCERSQLQDLVEFPYVNLHNEVVGIIESRARAVDLMTHNYYELLYAFHIYRHNYRKAGTVMFEYGMRLGREVRTLRGLEKQGNCYLAALNCLRLIRPEYAWIVQPVSGAVYDRPGASPKRNHDGECTAAPTNRQIEILELEDLEKECSLARIRLTLAQHDPSAVAVAGSSSAEEMVTLLVQAGLFDTAISLCQTFKLPLTPVFEGLAFKCIKLQFGGEAAQAEAWAWLAANQLSSVITTKESSATDEAWRLLSTYLERYKVQNNLYHHCVINKLLSHGVPLPNWLINSYKKVDAAELLRLYLNYDLLEEAVDLVSEYVDAVLGKGHQYFGIEFPLSATAPMVWLPYSSIDQLLQALGENSANSHNIALSQKILDKLEDYQQKVDKATRDLLYRRTL
B3: Nup85 (endogenous) (natural protein)
chain: MEELDGEPTVTLIPGVNSKKNQMYFDWGPGEMLVCETSFNKKEKSEMVPSCPFIYIIRKDVDVYSQILRKLFNESHGIFLGLQRIDEELTGKSRKSQLVRVSKNYRSVIRACMEEMHQVAIAAKDPANGRQFSSQVSILSAMELIWNLCEILFIEVAPAGPLLLHLLDWVRLHVCEVDSLSADVLGSENPSKHDSFWNLVTILVLQGRLDEARQMLSKEADASPASAGICRIMGDLMRTMPILSPGNTQTLTELELKWQHWHEECERYLQDSTFATSPHLESLLKIMLGDEAALLEQKELLSNWYHFLVTRLLYSNPTVKPIDLHYYAQSSLDLFLGGESSPEPLDNILLAAFEFDIHQVIKECSIALSNWWFVAHLTDLLDHCKLLQSHNLYFGSNMREFLLLEYASGLFAHPSLWQLGVDYFDYCPELGRVSLELHIERIPLNTEQKALKVLRICEQRQMTEQVRSICKILAMKAVRNNRLGSALSWSIRAKDAAFATLVSDRFLRDYCERGCFSDLDLIDNLGPAMMLSDRLTFLGKYREFHRMYGEKRFADAASLLLSLMTSRIAPRSFWMTLLTDALPLLEQKQVIFSAEQTYELMRCLEDLTSRRPVHGESDTEQLQDDDIETTKVEMLRLSLARNLARAIIREGSLEGS
B4: Nup62 (endogenous) (natural protein)
chain: MSGFNFGGTGAPTGGFTFGTAKTATTTPATGFSFSTSGTGGFNFGAPFQPATSTPSTGLFSLATQTPATQTTGFTFGTATLASGGTGFSLGIGASKLNLSNTAATPAMANPSGFGLGSSNLTNAISSTVTSSQGTAPTGFVFGPSTTSVAPATTSGGFSFTGGSTAQPSGFNIGSAGNSAQPTAPATLPFTPATPAATTAGATQPAAPTPTATITSTGPSLFASIATAPTSSATTGLSLCTPVTTAGAPTAGTQGFSLKAPGAASGTSTTTSTAATATATTTSSSSTTGFALNLKPLAPAGIPSNTAAAVTAPPGPGAAAGAAASSAMTYAQLESLINKWSLELEDQERHFLQQATQVNAWDRTLIENGEKITSLHREVEKVKLDQKRLDQELDFILSQQKELEDLLSPLEELVKEQSGTIYLQHADEEREKTYKLAENIDAQLKRMAQDLKDIIEHLNTSGAPADTSDPLQQICKILNAHMDSLQWIDQNSALLQRKVEEVTKVCEGRRKEQERSFRITFD

Legend:
Assay in all cases: LacI/LacO array recruitment in cells
[1] = target: T1, LacI-CFP-Nup50
[2] = target: T2, LacI-CFP-Nup155
[3] = target: T3, LacI-CFP-Nup107

Row | Binder | percent of transfected cells showing colocalization [1] [%] | percent of transfected cells showing colocalization [2] [%] | percent of transfected cells showing colocalization [3] [%]
1 | B1 | 6 | 46 | 
2 | B2 | 4 |  | 39
3 | B3 | 32 |  | 88
4 | B4 | 43 |  | 24
